Changes are numbered by the printed parent chain. Names and notes keep the numbering of the source. Each block holds one binder with its values, some of them ahead of it.
What was measured:
Human latent myostatin = biological target: T1, Human latent myostatin (human, UniProt O14793 25-266; O14793 267-375); assay: Western blot with the antibody as probe on GST-tagged 100-amino-acid fragments of the human latent myostatin propeptide expressed in E. coli BL21 (lanes 1-8), GST control (lane 9) and human latent myostatin 100 ng (lane 10)
T1 construct: Biotinylated in the ELISAs; also called human myostatin latent form
T1 sequence 1: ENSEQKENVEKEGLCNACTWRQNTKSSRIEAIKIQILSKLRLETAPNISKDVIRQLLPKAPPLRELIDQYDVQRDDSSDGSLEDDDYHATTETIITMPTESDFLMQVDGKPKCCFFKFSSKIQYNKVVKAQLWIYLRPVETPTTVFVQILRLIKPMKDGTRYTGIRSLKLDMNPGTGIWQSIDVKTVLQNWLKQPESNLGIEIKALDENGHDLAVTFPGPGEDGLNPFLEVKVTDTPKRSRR
T1 sequence 2: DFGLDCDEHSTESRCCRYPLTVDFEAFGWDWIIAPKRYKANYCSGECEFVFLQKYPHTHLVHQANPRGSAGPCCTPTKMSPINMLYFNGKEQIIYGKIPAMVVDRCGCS
Description: Fragments of the N-terminal propeptide coding region of human latent myostatin were cloned into a pGEX4.1 vector so as to produce GST tagged propeptide fragments of 100 amino acid each, with 80 amino acid overlap (FIG. 22A). Protein expression was induced in transformed BL21 competent cells with Overnight Express Autoinduction System (Merck Millipore) and protein was extracted using the BUGBUSTER® protein extraction reagent (Novagen).

[1] = biological target: T2, cynomolgus monkey FcγRIIIaS extracellular domain with C-terminal His-tag (cynomolgus monkey, UniProt Q8SPW2 21-206 at identity 1.00)); assay: SPR, antibody captured, FcγR analyte
T2 construct: also called cyno FcgRIIIaS; cynoFcγRIIIaS
T2 chain: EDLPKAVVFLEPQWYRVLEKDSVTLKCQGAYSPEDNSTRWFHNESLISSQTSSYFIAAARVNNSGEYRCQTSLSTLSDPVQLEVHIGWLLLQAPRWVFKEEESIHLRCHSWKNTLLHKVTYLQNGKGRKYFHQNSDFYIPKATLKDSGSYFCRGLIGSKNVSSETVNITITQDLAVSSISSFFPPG

[2] = biological target: T2, cynomolgus monkey FcγRIIIaS …; assay: SPR, KD(SG1)/KD(variant)
Experimental: (§1) The kinetic analysis of interactions between these antibodies and FcγR was carried out using BIACORE® T200 or BIACORE® 4000 (GE Healthcare). HBS-EP+ (GE Healthcare) was used as the running buffer, and the measurement temperature was set to 25° C. […] After the measurement, the antibody captured on the chip was washed off by allowing reaction with 10 mM glycine-HCl, pH1.5 and 25 mM NaOH so that the chip was regenerated and used repeatedly. The sensorgrams obtained as measurement results were analyzed by the 1:1 Langmuir binding model using the BIACORE® Evaluation Software to calculate the binding rate constant ka (L/mol/s) and dissociation rate constant kd (1/s), and the dissociation constant KD (mol/L) was calculated from these values. […] Regarding such interactions, KD values were calculated using the following 1:1 binding model described in BIACORE® T100 Software Handbook BR1006-48 Edition AE.

[3] = biological target: T3, cynomolgus monkey FcγRIIa1 extracellular domain with C-terminal His-tag (cynomolgus monkey); assay: SPR, KD(SG1)/KD(variant)
T3 construct: also called cyno FcgRIIa1; cynoFcγRIIa1
T3 chain: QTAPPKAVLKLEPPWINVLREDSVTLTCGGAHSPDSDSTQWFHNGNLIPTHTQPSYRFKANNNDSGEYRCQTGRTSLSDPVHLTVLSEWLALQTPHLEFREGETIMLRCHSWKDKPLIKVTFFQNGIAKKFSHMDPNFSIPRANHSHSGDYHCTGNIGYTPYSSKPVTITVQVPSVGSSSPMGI
Experimental: as §1

[4] = biological target: T4, human FcγRIIIaV extracellular domain, C-terminal His-tag (human, UniProt P08637 17-208); assay: SPR (BIACORE), captured by anti-human kappa, FcgR analyte
T4 construct: also called FcgRIIIaV
T4 sequence (P08637 17-208 F176V): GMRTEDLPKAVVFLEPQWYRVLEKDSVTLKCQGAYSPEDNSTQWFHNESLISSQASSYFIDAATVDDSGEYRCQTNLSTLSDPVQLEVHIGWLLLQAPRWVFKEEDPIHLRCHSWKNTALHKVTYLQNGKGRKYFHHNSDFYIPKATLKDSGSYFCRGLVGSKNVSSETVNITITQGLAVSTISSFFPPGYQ
Experimental: as §1
Furthermore, the substitutions used in Example 29 for improving antibody half-life and reducing binding to rheumatoid factor were introduced into human FcγRIIb-enhanced Fc variants and their affinity against human FcγRs were analyzed (Table 29).

[5] = biological target: T5, human FcγRIIIaV extracellular domain, His-tagged (human, UniProt P08637 17-208); assay: SPR Biacore, KD(SG1)/KD(variant)
T5 construct: also called FcgRIIIaV; not shown: C-terminal His-tag
T5 sequence (P08637 17-208 F176V): as above

[6] = biological target: T6, cynomolgus monkey FcγRIIa3 extracellular domain, His-tagged (cynomolgus monkey); assay: SPR Biacore, KD(SG1)/KD(variant)
T6 construct: also called cyno FcγRIIa3; cynoFcgRIIa3; not shown: C-terminal His-tag
T6 chain: T3 chain with P95T, T121A, A128S, H133P, D135N

[7] = biological target: T6, cynomolgus monkey FcγRIIa3 …; assay: SPR Biacore, antibody captured, FcgR analyte
[8] = biological target: T7, cynomolgus monkey FcγRIIa2 extracellular domain, His-tagged (cynomolgus monkey); assay: SPR Biacore, antibody captured, FcgR analyte
T7 construct: also called cyno FcγRIIa2; cynoFcgRIIa2; not shown: C-terminal His-tag
T7 chain: T3 chain with P95T, T121A, I127K, A128S, K130N, D135N, R142Q

[9] = biological target: T8, cynomolgus monkey FcγRIIb extracellular domain, His-tagged (cynomolgus monkey); assay: SPR Biacore, KD(SG1)/KD(variant)
T8 construct: also called cyno FcγRIIb; cynoFcγRIIb; not shown: C-terminal His-tag
T8 chain: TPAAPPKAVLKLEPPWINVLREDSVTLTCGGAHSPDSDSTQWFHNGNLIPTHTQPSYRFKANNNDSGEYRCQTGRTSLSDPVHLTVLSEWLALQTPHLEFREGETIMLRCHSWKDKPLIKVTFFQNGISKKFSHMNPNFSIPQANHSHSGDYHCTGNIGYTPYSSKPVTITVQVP

[10] = biological target: T9, cynomolgus monkey FcγRIIa1 extracellular domain, His-tagged (cynomolgus monkey); assay: SPR Biacore, KD(SG1)/KD(variant)
T9 construct: also called cyno FcγRIIa1; cynoFcgRIIa1; not shown: C-terminal His-tag
T9 chain: T3 chain

[11] = biological target: T9, cynomolgus monkey FcγRIIa1 …; assay: SPR Biacore, antibody captured, FcgR analyte
[12] = biological target: T10, human FcγRIIb extracellular domain, His-tagged (human, UniProt P31994 43-217); assay: SPR Biacore, antibody captured, FcgR analyte
T10 construct: also called FcgRIIb (human); not shown: C-terminal His-tag
T10 sequence: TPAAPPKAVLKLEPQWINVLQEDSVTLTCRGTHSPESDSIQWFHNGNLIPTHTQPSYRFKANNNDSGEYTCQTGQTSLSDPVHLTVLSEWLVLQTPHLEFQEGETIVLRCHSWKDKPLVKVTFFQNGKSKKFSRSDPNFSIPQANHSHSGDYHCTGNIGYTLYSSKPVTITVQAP

B2: MS1032LO06-PK55 (antibody, human IgG1, kappa)
heavy: QVTLKESGPVLVKPTETLTLTCTVSGIDLSHDDISWVRQAPGKGLEWVGIISYAGSTYYASWAKGRLTISKDTSKNQVVLTMTNMDPVDTATYYCARGVPAYSHGGDLWGQGTLVTVSSASTKGPSVFPLAPSSKSTSGGTAALGCLVKDYFPEPVTVSWNSGALTSGVHTFPAVLQSSGLYSLSSVVTVPSSSLGTQTYICNVNHKPSNTKVDKKVEPKSCDKTHTCPPCPAPELLNGPSVFLFPPKPKDTLMISRTPEVTCVVVDVSDEDPEVKFNWYVDGVEVHNAKTKPREEQYNSTYRVVSVLTVLHRDWLNGKEYKCKVSNKALPKPIEKTISKAKGQRREPQVYTLPPSREEMTKNQVSLTCLVKGFYPSDIAVEWESNGQPENNYKTTPPVLDSDGSFFLYSKLTVDKSRWQQGNVFSCSVMHEALHNHYTQKSLSLSP
light: DIVMTQSPATLSLSPGERATLSCTSSQSVYHANWLSWFQQKPGQPPKLLIYWASTLAYGVPSRFSGSGSGTDFTLTISSLQPEDAATYYCAGGYGGGRYAFGQGTKVEIKRTVAAPSVFIFPPSDEQLKSGTASVVCLLNNFYPREAKVQWKVDNALQSGNSQESVTEQDSKDSTYSLSSTLTLSKADYEKHKVYACEVTHQGLSSPVTKSFNRGEC
notes: MY201 with Q311R/P343R; also called MS103205H795-PK55; M103205H795-MY55
Kd [1]: 3.3 µM
KD fold (SG1 = 1) [2]: 0.08 fold
KD fold (SG1 = 1) [3]: 3.5 fold

B4: M103205H795-MY016/M103202L889-SK1 (antibody, human IgG1, kappa, name in EU numbering)
heavy: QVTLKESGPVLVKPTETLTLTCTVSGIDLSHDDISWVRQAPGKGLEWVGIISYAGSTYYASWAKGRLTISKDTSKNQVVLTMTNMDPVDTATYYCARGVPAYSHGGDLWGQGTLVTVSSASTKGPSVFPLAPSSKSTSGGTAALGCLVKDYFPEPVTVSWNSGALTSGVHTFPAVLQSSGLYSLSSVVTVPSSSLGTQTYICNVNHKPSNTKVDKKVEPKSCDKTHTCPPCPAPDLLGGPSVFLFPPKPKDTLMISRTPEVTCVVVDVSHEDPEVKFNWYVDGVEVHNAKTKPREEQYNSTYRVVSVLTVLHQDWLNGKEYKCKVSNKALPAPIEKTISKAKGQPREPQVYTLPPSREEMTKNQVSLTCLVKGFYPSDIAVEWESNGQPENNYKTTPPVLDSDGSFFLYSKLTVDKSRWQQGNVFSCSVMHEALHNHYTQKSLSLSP
light: B2 light
notes: Substitution introduced into M103205H795-SG1
KD fold (SG1 = 1) [5]: 2.19 fold

B6: M103205H795-MY037/M103202L889-SK1 (antibody, human IgG1, kappa, name in EU numbering)
heavy: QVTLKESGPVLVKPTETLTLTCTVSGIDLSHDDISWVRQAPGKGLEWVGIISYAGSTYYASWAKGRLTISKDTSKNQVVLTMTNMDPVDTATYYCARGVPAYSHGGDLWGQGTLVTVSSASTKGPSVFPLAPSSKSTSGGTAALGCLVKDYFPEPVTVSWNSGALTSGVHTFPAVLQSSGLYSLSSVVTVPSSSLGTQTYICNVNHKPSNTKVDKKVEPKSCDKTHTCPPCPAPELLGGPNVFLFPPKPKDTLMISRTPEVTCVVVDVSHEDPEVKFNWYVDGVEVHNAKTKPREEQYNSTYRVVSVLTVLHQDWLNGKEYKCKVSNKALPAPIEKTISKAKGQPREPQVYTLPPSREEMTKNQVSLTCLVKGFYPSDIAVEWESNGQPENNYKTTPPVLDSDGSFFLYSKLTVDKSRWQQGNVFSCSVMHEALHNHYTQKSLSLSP
light: B2 light
notes: Substitution introduced into M103205H795-SG1; EU numbering
KD fold (SG1 = 1) [6]: 1.6 fold
KD fold (SG1 = 1) [5]: 2.19 fold

B8: M103205H795-MY066/M103202L889-SK1 (antibody, human IgG1, kappa, name in EU numbering)
heavy: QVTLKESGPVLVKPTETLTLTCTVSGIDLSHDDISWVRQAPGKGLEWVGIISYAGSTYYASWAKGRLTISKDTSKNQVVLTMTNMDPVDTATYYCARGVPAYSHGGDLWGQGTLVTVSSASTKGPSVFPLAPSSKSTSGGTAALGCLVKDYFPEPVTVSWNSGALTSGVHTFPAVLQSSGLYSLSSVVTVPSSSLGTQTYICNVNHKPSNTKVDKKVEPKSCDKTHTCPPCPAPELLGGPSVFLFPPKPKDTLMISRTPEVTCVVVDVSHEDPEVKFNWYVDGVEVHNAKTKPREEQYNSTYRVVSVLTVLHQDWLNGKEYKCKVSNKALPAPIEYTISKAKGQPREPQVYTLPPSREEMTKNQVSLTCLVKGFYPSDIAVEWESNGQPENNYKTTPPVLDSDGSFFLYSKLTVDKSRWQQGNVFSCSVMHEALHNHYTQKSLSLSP
light: B2 light
notes: as for B6
Kd [7]: 6.7 µM
Kd [8]: 2600 nM

B9: M103205H795-MY064/M103202L889-SK1 (antibody, human IgG1, kappa, name in EU numbering)
heavy: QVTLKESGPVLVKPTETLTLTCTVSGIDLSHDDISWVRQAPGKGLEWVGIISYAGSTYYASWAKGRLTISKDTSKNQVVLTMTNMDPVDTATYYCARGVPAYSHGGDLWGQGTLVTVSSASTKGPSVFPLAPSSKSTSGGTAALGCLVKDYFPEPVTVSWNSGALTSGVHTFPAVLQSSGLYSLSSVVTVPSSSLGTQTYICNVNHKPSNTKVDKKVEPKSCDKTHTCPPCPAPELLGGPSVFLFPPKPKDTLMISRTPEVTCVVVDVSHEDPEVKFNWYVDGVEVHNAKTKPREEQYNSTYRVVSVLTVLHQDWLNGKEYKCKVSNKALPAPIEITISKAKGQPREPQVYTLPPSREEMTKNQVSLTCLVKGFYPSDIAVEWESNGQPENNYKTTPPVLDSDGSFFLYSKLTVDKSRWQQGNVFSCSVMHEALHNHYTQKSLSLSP
light: B2 light
notes: as for B6
Kd [7]: 6.9 µM
Kd [8]: 2600 nM

B10: M103205H795-MY010/M103202L889-SK1 (antibody, human IgG1, kappa, name in EU numbering)
heavy: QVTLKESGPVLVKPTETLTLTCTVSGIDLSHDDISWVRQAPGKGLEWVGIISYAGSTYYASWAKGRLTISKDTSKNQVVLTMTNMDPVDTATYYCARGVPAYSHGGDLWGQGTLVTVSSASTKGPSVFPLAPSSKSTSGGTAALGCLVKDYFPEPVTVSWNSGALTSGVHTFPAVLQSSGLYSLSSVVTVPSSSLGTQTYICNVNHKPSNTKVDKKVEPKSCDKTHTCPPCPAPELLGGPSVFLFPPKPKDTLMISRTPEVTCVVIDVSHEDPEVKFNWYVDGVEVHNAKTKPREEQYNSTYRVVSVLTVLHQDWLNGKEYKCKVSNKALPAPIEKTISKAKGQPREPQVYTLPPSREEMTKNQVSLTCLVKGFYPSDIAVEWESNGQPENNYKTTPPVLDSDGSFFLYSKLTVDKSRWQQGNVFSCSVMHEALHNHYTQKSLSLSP
light: B2 light
notes: as for B6
KD fold (SG1 = 1) [6]: 1.1 fold
KD fold (SG1 = 1) [9]: 0.9 fold
KD fold (SG1 = 1) [10]: 0.9 fold
Kd [7]: 16 µM
Kd [11]: 3.5 µM
Kd [12]: 5.1 µM

Next, values leading:

binding result (Human latent myostatin): binds
B1: MST1572 (antibody, human IgG1, kappa, V domains shown)
VH: QSVEESGGRLVTPGTPLTLTCTVSGFSLSSYAMSWVRQAPGKGLEWIGIIYGVGSTYYASWAKGRFTISKTSTTVDLKIASPTTEDTATYFCARDDYGWGYTNLWGPGTLVTVSS
VL: QVLTQTPSSVSAAVGGTVTINCQSSQSVYNNNYLAWFQQKPGQPPKLLIYDASKLASGVPSRFKGSGSGTQFTLTISGVQCDDAATYYCQGSYYSSGWYRAFGGGTKVEIKR
notes: Constant regions as for MST1504

Kd [4]: 930 µM
B3: MS103240H795-TT69/M103202L1045-SK1 (antibody)
heavy: QVQLVESGGGLVQPGGSLRLSCAVSGIDLSHDDISWVRQAPGKGLEWVSIISYAGSTYYASWAKGRLTISKDTSKNQVVLTMTNMDPVDTATYYCARGVPAYSHGGDLWGQGTLVTVSSASTKGPSVFPLAPSSKSTSGGTAALGCLVKDYFPEPVTVSWNSGALTSGVHTFPAVLQSSGLYSLSSVVTVPSSSLGTQTYICNVNHKPSNTKVDKKVEPKSCDKTHTCPPCPAPELLGGDSVFLFPPKPKDVLMISRTPEVTCVVVDVSHEDPEVKFNWYVDGVEVHNAKTKPREEQYNSTYRVVSVLPVLHRDWLNGKEYKCKVSNKALPKPIEKTISKAKGQPREPQVYTLPPSREEMTKNQVSLTCLVKGFYPSDIAVEWESNGQPENNYKTTPPVLDSDGSFFLYSKLTVKKSRWQQGNVFSCSVLHEALHAHTTRKELSLSP
light: B2 light with S25T, A32E
notes: copies: 2 + 2

Kd [4]: 960 µM
B5: MS103240H795-TT90/M103202L1045-SK1 (antibody)
heavy: B3 heavy with L236Y, V266I, P345R, K415D, L430M, T438Y
light: B2 light with S25T, A32E

Kd [4]: 900 µM
B7: MS103240H795-TT72/M103202L1045-SK1 (antibody)
heavy: B3 heavy with V266I, L430M, T438Y
light: B2 light with S25T, A32E
notes: copies: 2 + 2

binding result (Human latent myostatin): binds
B11: MST1538 (antibody, human IgG1, kappa, V domains shown)
VH: QSLEESGGGLVKPGGTLTLTCKASGIDFSSYYYMCWVRQAPGKGLEWIACIYAGISGSTYYASWAKGRFTISKTSSTTVTLQMTSLTAADTATYFCARDPYHFDYGSLWGPGTLVTVSS
VL: ALVMTQTPASVSAAVGGTVTINCQASQSVYGGNELSWYQQEPGQPPKLLIYSASKLASGVPSRFKGSGSGTQFTLTISGVQCDDAAAYYCAGYRTYSDDDNAFGGGTKVEIKR
notes: as for B1

From patent US20250076311A1 (Chugai, published 2025)
